Laboratory results from patent US20130302375A1, “MODULATION OF ANTIGEN IMMUNOGENICITY BY ADDITION OF EPITOPES RECOGNIZED BY NKT CELLS” (IMNATE SARL, priority 2010, published 2013).

What was measured:
EG7 tumor cells = experiment: EG7 tumor growth in preimmunized mice; assay type: in vivo; settings: mice preimmunized subcutaneously in alum on 4 occasions, then engrafted with 10^6 EG7 tumor cells in the flank
Procedure: Immunization of mice with ova of SEQ ID4 was carried out using […] of ova in alum administered subcutaneously on 4 occasions separated by an interval of 10 days. A control group was immunized with ova in natural sequence (SEQ ID3). All mice were then engrafted with 10^6 EG7 tumor cells injected in the flank and the growth of the tumor was followed over time.

EG7 cells = experiment: In vitro killing of EG7 cells by NKT cells from immunized mice (Annexin V / 7-AAD); assay type: cell-based; settings: 18 h at 37° C. with NKT cells from immunized mice, ratios 1/1 to 1/5 (EG7 versus NKT)
Procedure: In vitro killing of EG7 cells was evaluated using NKT cells prepared from the spleen using magnetic bead sorting. The NKT cells were first stimulated for 4 h in vitro with antigen-presenting cells loaded with ova of SEQ ID4. EG7 cells were labeled at membrane level with 1 μM DiOC18 (3,3′-dioctadecycloxacarbocyanine perchlorate from Invitrogen). EG7 cells (1×10^5 per well) were then cultured for 18 h at 37° C. in the presence of NKT cells obtained from each one of the 2 mouse groups, using ratios of 1/1 to 1/5 (EG7 cells versus NKT cells). After 18 h, cells were harvested and stained for Annexin V and 7-AAD following manufacturer's instructions (Apoptosis Detection kit; BD Biosciences) and analyzed on a FACSCantoII flow cytometer (BD Biosciences).

anti-Der p 2 antibodies = experiment: Specific anti-Der p 2 antibodies by direct binding ELISA after immunization; assay type: in vivo, C57BL/6 mice; settings: 50 μg protein in alum subcutaneously 4 times at 10 days intervals
Procedure: Two groups of C57BL/6 mice (H-2b) were immunized with either native Der p 2 (SEQ ID7) or native Der p 2 wherein a CD1d binding motif had been added (SEQ ID8), using 50 μg of protein in alum injected subcutaneously 4 times at 10 days intervals. Mice were then bled and the concentration of specific anti-Der p 2 antibodies was tested by direct binding ELISA. It is observed that the concentration of antibodies is 10-fold higher in the group of mice immunized with Der p 2 of SEQ ID8.

[1] = tested on: class II restricted CD4+ T cells; experiment: Proliferation of CD4+ T cells from immunized mice cultured with dendritic cells from CD1d KO mice; assay type: cell-based, C57BL/6 mice; settings: 10^6 cells/well with dendritic cells from syngeneic CD1d KO mice
Procedure: Further, CD4+ T cells were prepared from the spleen of each mouse from the 2 groups, using magnetic bead sorting. Such cells (10^6 cells/well) were cultured with dendritic cells prepared from syngeneic CD1d KO mice. Such cells can only activate class II restricted CD4+ T cells. It is observed that cells obtained from mice immunized with Der p 2 of SEQ ID8 proliferate with a stimulation index 4-fold higher than cells obtained from mice immunized with native Der p 2 (SEQ ID7).

Molecule | tumor rejection (EG7 tumor cells) | apoptosis of EG7 cells (EG7 cells) | concentration of specific anti-Der p 2 antibodies, versus mice immunized with native Der p 2 (SEQ ID7) (anti-Der p 2 antibodies) [fold] | stimulation index of CD4+ T cell proliferation, versus cells from mice immunized with native Der p 2 (SEQ ID7) [1] [fold]
ova of SEQ ID4: ovalbumin with H22 and K187 mutated to F, generating new CD1d binding motifs (protein, listed as Gallus sp.) MGSIGAASMEFCFDVFKELKVFHANENIFYCPIAIMSALAMVYLGAKDSTRTQINKVVRFDKLPGFGDSIEAQCGTSVNVHSSLRDILNQITKPNDVYSFSLASRLYAEERYPILPEYLQCVKELYRGGLEPINFQTAADQARELINSWVESQTNGIIRNVLQPSSVDSQTAMVLVNAIVFKGLWEFTFKDEDTQAMPFRVTEQESKPVQMMYQIGLFRVASMASEKMKILELPFASGTMSMLVLLPDEVSGLEQLESIINFEKLTEWTSSNVMEERKIKVYLPRMKMEEKYNLTSVLMAMGITDVFSSSANLSGISSAESLKISQAVHAAHAEINEAGREVVGSAEAGVDAASVSEEFRADHPFLFCIKHIATNAVLFFGRCVSP | rejected the tumor | induced into apoptosis |  | 
ova of SEQ ID3: ovalbumin (chicken) in natural sequence (protein, listed as Gallus sp.) MGSIGAASMEFCFDVFKELKVHHANENIFYCPIAIMSALAMVYLGAKDSTRTQINKVVRFDKLPGFGDSIEAQCGTSVNVHSSLRDILNQITKPNDVYSFSLASRLYAEERYPILPEYLQCVKELYRGGLEPINFQTAADQARELINSWVESQTNGIIRNVLQPSSVDSQTAMVLVNAIVFKGLWEKTFKDEDTQAMPFRVTEQESKPVQMMYQIGLFRVASMASEKMKILELPFASGTMSMLVLLPDEVSGLEQLESIINFEKLTEWTSSNVMEERKIKVYLPRMKMEEKYNLTSVLMAMGITDVFSSSANLSGISSAESLKISQAVHAAHAEINEAGREVVGSAEAGVDAASVSEEFRADHPFLFCIKHIATNAVLFFGRCVSP | did not | did not induce a significant degree of tumor cell apoptosis |  | 
Der p 2 of SEQ ID8: Der p 2 with the CD1d binding motif FAALAAF added at the carboxyterminal end (protein, listed as Dermatophagoides pteronyssinus) DQVDVKDCANHEIKKVLVPGCHGSEPCIIHRGKPFQLEAVFEANQNSKTAKIEIKASIDGLEVDVPGIDPNACHYMKCPLVKGQQYDIKYTWNVPKIAPKSENVVVTAKVMGDDGVLACAIATHAKIRDFAALAAF |  |  | 10 | 4
